# System: HEK293T
# Assay: median enrichment of reporter reads in eGFP-reduced (low/intermediate) vs eGFP-high sorted cells (eGFP-extension fusion abundance) (ratio); higher = stronger loss of eGFP-fusion protein abundance (more destabilising extension)
# 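Note: lentiviral eGFP-IRES-mCherry reporter pool sorted by FACS 96 h post-transduction, gated on mCherry-high cells, Illumina read counts normalized per million, median across four biological replicates.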
row,Substance,median enrichment
1,SVGSPSKPRPLKPPLAAPRSSHYLCPEGGKSFPAHPPR [BCL7C],1.39
2,SVGTAQWRRGYSPG [HTR3A],28
3,SVHQLPAPALAPTPSSLKHPPAHCGQLCATRAHGAPPVL [BAIAP3],1.3
4,SVIPGLSTPASPPAAGTALTLLSDPHSFPEMLRMFISPAPDPMSPGLRVCFPHIGLTVSL [KLK5],12.1
5,SVLPAHLGLVLALPRPL [LRSAM1],14.6
6,SVLPSVTSNSGKRKLK [STARD13],0.451
7,SVPLSHPYL [KLK2],0.37
8,SVPRPCQPCCTGCRHCTRCEGSTPAQAEFLGSTSPAAWGTGIAHSVNGSTPAWAESLGSDLAAWGESLGSVLAAWGAGIAQSM [WNT9A],7.93
9,SVQMMWEFVGFLFFFFFDT [ZNF80],7.98
10,SVRLDWGGWHCVGGQLSI [ACTL10],13.7
11,SVS [PACSIN3],0.33
12,SVSGNHEGIWQ [MOAP1],0.522
13,SVVPLFH [KIF22],0.762
14,SVWAGLFNMVFAVLPPWGPWSDNIVSLVRLSRCLIRTANGASPTPPRVRPPFHQRVSSQRPPASCPAAQEEKEGLNSIAIFFP [PDGFB],7.44
15,SVWGLAPCSPGPHCSHTLRLGPPSLLWC [TOM1],8.98
16,SWHSSPHTCSQAQMEVP [ACTL6B],0.404
17,SWPPASASSYLLPGSPPRRPPYRERGFTR [OGG1],6.11
18,SWPPPFPPPAPSPSPTRQLIPGLLSDPFSRGTSGQCPTTHTHHHLTGSSLISDNPHPHCFWGSLSHLSHPVSCLCLSWCLSGL [CCDC97],5.65
19,SWRRPMCIFF [FRAS1],9.68
20,SWTGLFLTSDLSQCLFCPGSDFPVVLPPFRIKGLIVYPEFTSFGVYI [COBL],13
21,SWTVPICREA [RWDD1],6.01
22,SWVCAQPFKAAGSTT [TRIM45],4.99
23,SYCSMDIK [KDM6A],1.22

row,Substance,median enrichment
1,SYEQNKTLRKINRQGSDLFLKNLRSVDSQED [PRKACB],2.01
2,SYFRLESKTS [PIK3CG],1.99
3,SYGTLAPRHEARWPVFLNLKCKILLFPGPRRV [ICOS],11
4,SYKPA [WDR97],0.947
5,SYKQRTSSILRKEML [MEOX2],5.43
6,SYKSIVSDWTITSFNNVSNNVLY [FAM135A],30.6
7,SYLQCPCCVALQMRPLQTRPA [WDCP],8.46
8,TAPALELGARAAELVFGPQRRIQNQKLKSDVRWAPAPSAESRQGEAGWSQAPSHAAPKSWTHLWGAPHLHLRPHISPLPFLYV [MYO9B],5.92
9,TIRLWDTYQSEPDGFSHFHLYVCAAFLVRWRKEILEEKDFQELLLFLQNLPTAHWDDEDISLLLAEAYRLKFAFADAPNHYKK [TBC1D22A],4.42
10,TLTMPRPHPVQHSQSSHLHPRTVGAGRHFPLEHVLRSITLGPTARLSLPPGSCMRSPDQLDHHFAQPLNTMHQASISQFPLAF [SCARA5],3.72
11,TMEPPGGRQKKR [Degron FEM1C],0.496
12,TMNNEEDLLRSL [Degron FEM1C],0.347
13,TPAPGLGRELTRTGCSQKAGPSLSPKPLLDLWRSCRLDREAVPLSSPSPSRASPWSFRSSFWGLFQVRRMEEGGQATQHPPTP [FOXN4],5.36
14,TQWAPCTPVSGAVRLGYIVNSASTERLALRASSESSSSGTPPKPTPPGTPLSGIPAKRRTLSRSRPPHPQSVAPPTEQPRFGP [PRRT1],0.999
15,TSLYKKVGMGRK [Degron APPBP2],14.1
16,TTMERWAVAMVDGLPGWAFELALGTTRLSLSSHGTQKCAAMLPRVLSPHLSQPSWRPGLSLQPLGPALIAGGQALDLEGLAHP [ADGRG1],5.12
17,TTT [Thr03],0.568
18,TTTT [Thr04],0.324
19,TTTTT [Thr05],0.336
20,TTTTTT [Thr06],0.322
21,TTTTTTT [Thr07],0.319
22,TTTTTTTT [Thr08],0.414
23,TTTTTTTTT [Thr09],0.552

row,Substance,median enrichment
1,TTTTTTTTTT [Thr10],0.379
2,VAANTPASGLLVAAPGDTPAKPTRWRGPPWSLATLPASAQGPLPSPGHLLCRRHSSQKPLSQKRLVFKKSRFFAPEVSFRGRM [AP1M1],4.38
3,VGIRAAPSGAGTAGTAAILLLLVFFLLSKINCGNILVSCDVRCSFVVKFAIDIEIMTSVFPEIKHVSTQDFLDHSRKCQTFSQ [KISS1R],7.04
4,VGTMAAGRAPGK [Degron APPBP2],6
5,VSGIMRRPWGMN [Degron APPBP2],10.2
6,VSHAYAHAQPPSGSLESRADTHSHTHCLAKNTPCLPCHSPHSHSLSPDPCLSLDCRGTTHLFGIQGPQPTVPSPINCSRAPHK [FOXP3],2.58
7,VSSFLLVFFILFSFHQPSCILALQRDRDRSSAQGFSLPLFIMGGGYHPPSQSCEESGTSFFPTSLFPHSFLSPSGLSFPYTLT [NOTCH3],5.94
8,VVRASPYLLLSPCEEDPDLASFPRRGWGVPRVPVLEGPPSPSLITVLFSAPPSAARLQHQGEADAEPHRWESCLWKGAFCYNL [ZNF646],3.51
9,VVV [Val03],0.518
10,VVVV [Val04],1.54
11,VVVVV [Val05],10.3
12,VVVVVV [Val06],5.06
13,VVVVVVV [Val07],7.67
14,VVVVVVVV [Val08],10.5
15,VVVVVVVVV [Val09],8.21
16,WAAAARPSGTPASPGGALGQVPSGRTTPGPQGPRPAATLVVAASRSAFGRPLGVAGAARRVQVEVPVPGPQRA [B3GALT6],8.24
17,WAAPPGRWGAPLNDSVILKRWLGSWEKPSGCPLGNLHIISVLLVMSRWRGHRCAVSCSRNY [C19orf12],22
18,WACYFHGVCQ [OR5D18],4.25
19,WADPGYVPYPRGLSIDRDYIITWLEVKGSIQVLHLVLPCLLSDHSDGLMWLLMWNCRRVQRRVCNKAIGKHTGAFPSPSGPRP [HS3ST3B1],4.31
20,WADPVGIRAAPSGAGTAGTAAILLLLVFFLLSKINCGNILVSCDVRCSFVVKFAIDIEIMTSVFPEIKHVSTQDFLDHSRKCQ [KISS1R],10.9
21,WAGLRGMVRTSPP [NANS],6.83
22,WALGLKSQLFLSCSV [DIRAS3],35.7
23,WALHPARS [IQCD],0.961

row,Substance,median enrichment
1,WAPGTAPHCQLPLLGGPGRRVPPSPCQGPGDPLPGCLRLLLRRGNAKKEKEKPRARPLPPAVHCAASSVPGLTVPLSSAPARQ [NRXN2],6.68
2,WAPLPPTPYQLQSGGFHAQMALGVTSSFACGP [TPGS2],10.1
3,WAPSCLSRDPGTPPARTLGLSLPRAPPASVDWRVVLPLPRNQPQPR [SLC9A3R2],18.7
4,WARGHARAVQSWPGPPVGLLCSLPSLPPDAGPCCSLRTIRSSCSCHPHLETCLCAHLKMGSVPVLKCPVAAPVVEDQGLRFGT [FRMD8],5.56
5,WARRASQRSGQAVRPWPSVC [INMT],9.99
6,WARSAVSSQWILVNWWRLADTLEKPKPESLLFSLFSCLCSVSLNTTFSAMVCG [MRFAP1],5.48
7,WARSTGPDEWIFTTFTRL [CD8B],7.72
8,WARTLNRTPVGPARTACSAGDGSDPWSSIAPHDIESRPVFALWEENGRESGQLSQSIRAGRT [ABCC6],7.78
9,WARTSPGTAGGPPPPPSHSVTPGPSGAGWRPRSPLLRSPRS [NPB],3.31
10,WARVVARPCTTAIANQSPKAKFTCCSHPQ [MAGEB2],8.12
11,WASSPPAHVMKQRFGLVAHCLWPPSPAQPQASQPQTLESPTTMERWAVAMVDGLPGWAFELALGTTRLSLSSHGTQKCAAMLP [ADGRG1],5.77
12,WATLRSVFPLPPSPHVRRPPPRCSRGS [C19orf57],15.9
13,WATLSVGFFLEDSTLLPHVLSQLQS [CSTF1],4.6
14,WAV [GBA2],0.997
15,WAVSLTCPGTPAPGLGRELTRTGCSQKAGPSLSPKPLLDLWRSCRLDREAVPLSSPSPSRASPWSFRSSFWGLFQVRRMEEGG [FOXN4],4.84
16,WAWTLEKEARSQPLAGQGRRPQEPSPPLLCVGTGGPWPVPGHSGQGPRDISTRSWRAVRIHSACPALAGQRQGRTFGKTKTVG [TCF15],5.34
17,WCLGSTCLLSPQGLSLASLQWGCCVSVHLRLLCLCLLHHAGVWEEWTDRG [TCL1A],4.56
18,WCLHHLCSCSLKGSPYSKPPKLGDPSSP [MPIG6B],6.53
19,WCPGVCCLAHMSLL [CLSTN2],5.25
20,WCPPKP [FAM8A1],0.371
21,WCSYLFFSSLS [LAMTOR5],13.3
22,WCWKRSKHWPLVSTLQPPQVPLWGDTGGPLAVTPCAWSDPRPLPPARFLLSPAWEDVSLSTSQRARGARGWTGQ [PPP2R1A],3.49
23,WDFGSF [TSPAN31],0.573

row,Substance,median enrichment
1,WDGR [ZNF772],0.288
2,WDRAGDEARPWTLHPAIETGLRRKEDPGQDPGRLATPPTPRTYSR [NUPR1],5.32
3,WDREDPA [BTNL3],0.401
4,WDSSPSPSDQGPSSSKPEAELPAHPCRPPKPTPPHPV [ARL8A],1.02
5,WDSSQFERQ [MYCBP],0.249
6,WEAGWG [RPS6KB2],1.06
7,WECRSAGRREE [CNPY1],7.46
8,WEDPPEE [IGF1],1.04
9,WEDRPAASWSREASVIAHTQFRFPPLYRQEVNLPGAEHPPKESPLNNTPPPRQECPNPNDPSFPNE [EDN3],0.582
10,WEKN [C12orf65],0.333
11,WEKQAKEKSVTVPL [KIDINS220],0.839
12,WEKSYKCKECGKPLDDPQTLMNMRKFIL [ZNF141],11.7
13,WELLFLGEGEEGKGPGSRGTRG [EPHB1],5.5
14,WEMVGIRLRAASTQSQSKASLLMCEFTNSDGSSHILQMLSLPAG [ITSN2],19.2
15,WEPTACRCRRMRGCRDARRRPRSQPTTPPPA [FOXL2],17.5
16,WERPGGGAHWEGQDSVPALILPCPDVSCFAQRSFLSTPLIPRLVPREGWRPGHGPSRRGREGRRGRGRIEPIPAGEGEPSVHL [ASIC4],1.34
17,WETA [FAXDC2],0.459
18,WFC [HNRNPF],2.6
19,WFFCFNKQQ [TMEM31],6.9

# From the supplement of paper PMC11502859
